Measured values reported in PMC11032447 (2024).

B1: helix-b of the Habc domain of mouse syntaxin-4 (domain or fragment)
chain: TPLPEESMKQGLQNLREEIKQLGREVRAQLKAIEPQKE

How the values were obtained:
Assay in all cases: ITC
[1] = target: T1, mouse secretagogin V233A (mouse, UniProt Q91WD9 1-276, V233A)
T1 sequence: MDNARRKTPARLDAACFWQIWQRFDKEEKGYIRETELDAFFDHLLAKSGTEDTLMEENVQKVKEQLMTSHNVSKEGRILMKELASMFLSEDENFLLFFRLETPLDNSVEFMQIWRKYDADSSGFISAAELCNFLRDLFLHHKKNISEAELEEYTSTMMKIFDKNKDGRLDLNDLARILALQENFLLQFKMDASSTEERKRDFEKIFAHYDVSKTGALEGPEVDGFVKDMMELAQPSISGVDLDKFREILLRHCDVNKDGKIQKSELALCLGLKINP

[2] = target: T2, mouse secretagogin M229E (mouse, UniProt Q91WD9 1-276, M229E)
T2 sequence: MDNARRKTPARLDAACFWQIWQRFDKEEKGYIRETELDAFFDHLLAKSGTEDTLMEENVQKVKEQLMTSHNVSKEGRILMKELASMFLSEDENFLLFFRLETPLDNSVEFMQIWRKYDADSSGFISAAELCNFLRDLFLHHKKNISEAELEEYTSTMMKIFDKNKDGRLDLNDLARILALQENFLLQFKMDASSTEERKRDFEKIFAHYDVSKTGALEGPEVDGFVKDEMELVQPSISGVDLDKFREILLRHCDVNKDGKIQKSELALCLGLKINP

[3] = target: T3, mouse secretagogin M229A (mouse, UniProt Q91WD9 1-276, M229A)
T3 sequence: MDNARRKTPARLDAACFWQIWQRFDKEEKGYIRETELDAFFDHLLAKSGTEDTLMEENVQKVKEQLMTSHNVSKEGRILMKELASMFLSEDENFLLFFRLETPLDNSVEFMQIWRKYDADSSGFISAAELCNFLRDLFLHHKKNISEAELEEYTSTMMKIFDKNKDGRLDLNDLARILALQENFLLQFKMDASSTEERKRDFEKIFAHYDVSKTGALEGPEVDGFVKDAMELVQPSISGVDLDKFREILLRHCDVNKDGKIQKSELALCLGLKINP

[4] = target: T4, mouse secretagogin R198A (mouse, UniProt Q91WD9 1-276, R198A)
T4 sequence: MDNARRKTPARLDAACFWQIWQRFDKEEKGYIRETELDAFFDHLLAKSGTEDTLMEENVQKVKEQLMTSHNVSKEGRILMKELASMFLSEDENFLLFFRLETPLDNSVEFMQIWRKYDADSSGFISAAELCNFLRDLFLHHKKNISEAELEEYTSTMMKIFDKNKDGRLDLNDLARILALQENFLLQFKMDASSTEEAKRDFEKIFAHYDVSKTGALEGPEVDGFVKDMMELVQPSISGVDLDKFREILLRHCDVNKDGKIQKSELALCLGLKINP

[5] = target: B1
[6] = target: C-terminal SNARE domain of mouse SNAP-25 (mouse, UniProt P60879 140-206)
Chain of C-terminal SNARE domain of mouse SNAP-25 (P60879 140-206): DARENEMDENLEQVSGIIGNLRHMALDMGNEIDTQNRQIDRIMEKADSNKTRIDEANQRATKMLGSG

| Binder | Kd [1] | Kd [2] | Kd [3] | Kd [4] | Kd [5] | Kd [6] |
| --- | --- | --- | --- | --- | --- | --- |
| B1 | 125 nM | 5210 nM | 1620 nM | 808 nM |  |  |
| mouse secretagogin (natural protein) MDNARRKTPARLDAACFWQIWQRFDKEEKGYIRETELDAFFDHLLAKSGTEDTLMEENVQKVKEQLMTSHNVSKEGRILMKELASMFLSEDENFLLFFRLETPLDNSVEFMQIWRKYDADSSGFISAAELCNFLRDLFLHHKKNISEAELEEYTSTMMKIFDKNKDGRLDLNDLARILALQENFLLQFKMDASSTEERKRDFEKIFAHYDVSKTGALEGPEVDGFVKDMMELVQPSISGVDLDKFREILLRHCDVNKDGKIQKSELALCLGLKINP |  |  |  |  | 407 nM | 21.9 nM |
